Data set [1] relates to ctDDX11 K427E/K428E (Chaetomium thermophilum). In words: fluorescence anisotropy. The conditions noted are these: 1 mM MgSO4, 25 mM HEPES pH 7.5, 25 mM KCl, 2 nM DNA, ctXPD: 20 mM HEPES pH 7.5, 50 mM KCl, 5 mM MgCl2, 1 mM TCEP, 5 nM DNA, room temperature, ctDDX11: 25 mM HEPES pH 7.5, 25 mM KCl, 1 mM MgSO4, 1 mM TCEP.
Data set [2] relates to ctDDX11 wild type (Chaetomium thermophilum). As to the kind of experiment: fluorescence anisotropy. The conditions noted are these: 1 mM MgSO4, 25 mM HEPES pH 7.5, 25 mM KCl, 2 nM DNA, ctXPD: 20 mM HEPES pH 7.5, 50 mM KCl, 5 mM MgCl2, 1 mM TCEP, 5 nM DNA, room temperature, ctDDX11: 25 mM HEPES pH 7.5, 25 mM KCl, 1 mM MgSO4, 1 mM TCEP.
For data set [3], the system named is ctXPD K369E (Chaetomium thermophilum). In words: fluorescence anisotropy. The conditions noted are these: 5 mM Mg2+; no MAT1; text gives 54 nM; ctXPD: 20 mM HEPES pH 7.5, 50 mM KCl, 5 mM MgCl2, 1 mM TCEP, 5 nM DNA, room temperature; ctDDX11: 25 mM HEPES pH 7.5, 25 mM KCl, 1 mM MgSO4, 1 mM TCEP, 2 nM ….
Data set [4] concerns ctXPD R323E (Chaetomium thermophilum). As to the kind of experiment: fluorescence anisotropy. To be noted: 5 mM Mg2+; no MAT1; ctXPD: 20 mM HEPES pH 7.5, 50 mM KCl, 5 mM MgCl2, 1 mM TCEP, 5 nM DNA, room temperature; ctDDX11: 25 mM HEPES pH 7.5, 25 mM KCl, 1 mM MgSO4, 1 mM TCEP, 2 nM ….
In data set [5] the test system is ctXPD R323S/R324S (Chaetomium thermophilum). As to the kind of experiment: fluorescence anisotropy. To be noted: 5 mM Mg2+, ctXPD: 20 mM HEPES pH 7.5, 50 mM KCl, 5 mM MgCl2, 1 mM TCEP, 5 nM DNA, room temperature, ctDDX11: 25 mM HEPES pH 7.5, 25 mM KCl, 1 mM MgSO4, 1 mM TCEP, 2 nM ….
In data set [6] the test system is ctXPD R324E (Chaetomium thermophilum). In words: fluorescence anisotropy. The conditions noted are these: 5 mM Mg2+; no MAT1; ctXPD: 20 mM HEPES pH 7.5, 50 mM KCl, 5 mM MgCl2, 1 mM TCEP, 5 nM DNA, room temperature; ctDDX11: 25 mM HEPES pH 7.5, 25 mM KCl, 1 mM MgSO4, 1 mM TCEP, 2 nM ….
Data set [7] deals with ctXPD R333E/R334E (Chaetomium thermophilum). As to the kind of experiment: fluorescence anisotropy. To be noted: 5 mM Mg2+; no MAT1; ctXPD: 20 mM HEPES pH 7.5, 50 mM KCl, 5 mM MgCl2, 1 mM TCEP, 5 nM DNA, room temperature; ctDDX11: 25 mM HEPES pH 7.5, 25 mM KCl, 1 mM MgSO4, 1 mM TCEP, 2 nM ….
For data set [8], the system named is ctXPD R333S/R334S (Chaetomium thermophilum). As to the kind of experiment: fluorescence anisotropy. To be noted: 5 mM Mg2+, ctXPD: 20 mM HEPES pH 7.5, 50 mM KCl, 5 mM MgCl2, 1 mM TCEP, 5 nM DNA, room temperature, ctDDX11: 25 mM HEPES pH 7.5, 25 mM KCl, 1 mM MgSO4, 1 mM TCEP, 2 nM ….
For data set [9], the system named is ctXPD wild type (Chaetomium thermophilum). In words: fluorescence anisotropy. To be noted: 5 mM Mg2+; no MAT1; ctXPD: 20 mM HEPES pH 7.5, 50 mM KCl, 5 mM MgCl2, 1 mM TCEP, 5 nM DNA, room temperature; ctDDX11: 25 mM HEPES pH 7.5, 25 mM KCl, 1 mM MgSO4, 1 mM TCEP, 2 nM ….
Data set [10] concerns ctXPD wild type;ctMAT1Lock (Chaetomium thermophilum;Chaetomium thermophilum). As to the kind of experiment: fluorescence anisotropy. The conditions noted are these: 5 mM Mg2+; equimolar ctMAT1Lock; ctXPD: 20 mM HEPES pH 7.5, 50 mM KCl, 5 mM MgCl2, 1 mM TCEP, 5 nM DNA, room temperature; ctDDX11: 25 mM HEPES pH 7.5, 25 mM KCl, 1 mM MgSO4, 1 mM TCEP, 2 nM ….
The target in data set [11] is Chaetomium thermophilum XPD, wild type (Chaetomium thermophilum).
Data set [12] has the same target. As to the kind of experiment: native gel or EMSA; native PAGE of ctXPD with the ctMAT1 fragments ctMAT1Archway and ctMAT1Lock at similar concentrations (Supplementary Fig. 2c); unbound fragment quantified.
For data set [13], the target named is ctXPD K369A (Chaetomium thermophilum).
For data set [14], the target named is T1, human XPD, wild type (XPD-FLAG) (human) (UniProt P18074).
T1 sequence: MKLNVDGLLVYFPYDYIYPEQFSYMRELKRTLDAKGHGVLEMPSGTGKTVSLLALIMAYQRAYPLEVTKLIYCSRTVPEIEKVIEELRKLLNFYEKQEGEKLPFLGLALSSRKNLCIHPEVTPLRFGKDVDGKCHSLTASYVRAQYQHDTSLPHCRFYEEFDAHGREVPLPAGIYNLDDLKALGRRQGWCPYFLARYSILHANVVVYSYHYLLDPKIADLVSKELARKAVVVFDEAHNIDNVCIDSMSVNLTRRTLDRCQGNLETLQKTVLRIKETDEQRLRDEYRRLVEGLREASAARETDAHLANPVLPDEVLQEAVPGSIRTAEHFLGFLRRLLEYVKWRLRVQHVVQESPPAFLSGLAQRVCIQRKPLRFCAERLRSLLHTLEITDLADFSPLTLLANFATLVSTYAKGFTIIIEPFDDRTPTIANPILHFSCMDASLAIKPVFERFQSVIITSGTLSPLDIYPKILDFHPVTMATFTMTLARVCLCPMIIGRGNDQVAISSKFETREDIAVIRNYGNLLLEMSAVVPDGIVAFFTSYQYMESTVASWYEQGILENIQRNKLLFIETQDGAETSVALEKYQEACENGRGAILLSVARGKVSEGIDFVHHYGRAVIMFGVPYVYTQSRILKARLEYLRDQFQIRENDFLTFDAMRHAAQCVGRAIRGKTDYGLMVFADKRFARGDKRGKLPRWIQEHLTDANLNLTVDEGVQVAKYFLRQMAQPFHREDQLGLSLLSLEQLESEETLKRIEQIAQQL

Setting [15] is: equimolar ctMAT1Lock present (not bound by variant).

Consider four substances from publication PMC7125077.

With “AGCTACCATGCCTGCACGAATTAAGCAATTCGTAATCATGGTCATAGC / GCTATGACCATGATTACGAATTGCTTGGAATCCTGACGAACTGTAG [splayed duplex DNA]”, the Kd in data set [1] was 50.8 nM; in [2] it was 30.8 nM; in data set [3], 55 nM; in data set [4], 41 nM; in [5] (setting [15]) it was 31 nM; in data set [5] (no MAT1), 51 nM. In addition, the Kd is 72 nM in data set [6]; 108 nM in data set [7]; 128 nM in data set [8] (setting [15]); 154 nM in data set [8] (no MAT1); 66 nM in [9]; 379 nM in data set [10].

For the substance “ctMAT1Archway (residues 83-157 of Chaetomium thermophilum MAT1) (domain or fragment)”, the inhibition of ctXPD helicase activity (with ctp44, 5' overhang substrate) by titration of the ctMAT1 construct, IC50 in data set [11] turned out to be 2990 nM. The percent unbound ctMAT1 fragment in data set [12] amounted to 84%.

On to “ctMAT1Lock (residues 1-157 of Chaetomium thermophilum MAT1) (domain or fragment)”, for which, in [11], the inhibition of ctXPD helicase activity (with ctp44, 5' overhang substrate) by titration of the ctMAT1 construct, IC50 is 220 nM. In data set [13], this substance came in with an inhibition of helicase activity of the ctXPD variant by ctMAT1Lock, IC50 of 263 nM. For the same substance, the percent unbound ctMAT1 fragment in [12] was found to be 12.8%.

Turning to “human CAK with MAT1 D97S/E100S (from UniProt P51948 1-309; P50613 1-346; P51946 1-323) (complex)”, the in vitro run-off transcription with core-TFIIH lacking XPD (rIIH6), XPD and the CAK variant, residual activity against wild-type CAK in data set [14] is 55%.
